Results as given in patent US20250250314A1 (XILIO DEVELOPMENT, published 2025).

Biological target: PD-1 from the PD-1 effector cells (UniProt Q15116 25-288, limits assumed)
Assay: cell-based or functional assay

Chain of PD-1 from the PD-1 effector cells (Q15116 25-288 limits assumed): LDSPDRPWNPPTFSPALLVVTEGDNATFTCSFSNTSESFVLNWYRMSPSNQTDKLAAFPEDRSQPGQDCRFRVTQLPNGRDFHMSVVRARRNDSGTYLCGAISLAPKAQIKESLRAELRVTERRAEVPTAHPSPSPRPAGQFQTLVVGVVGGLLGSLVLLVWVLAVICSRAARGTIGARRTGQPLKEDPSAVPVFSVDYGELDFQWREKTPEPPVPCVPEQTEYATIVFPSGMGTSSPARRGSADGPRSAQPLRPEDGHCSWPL

Row | EC50 (nM), fold induction of luminescence in the PD-1/PD-L1 Blockade Bioassay [nM] | Binder
1 | 1.15 | UCM5 (other) heavy 1: QVQLVQSGVEVKKPGASVKVSCKASGYTFTNYYMYWVRQAPGQGLEWMGGINPSNGGTNFNEKFKNRVTLTTDSSTTTAYMELKSLQFDDTAVYYCARRDYRFDMGFDYWGQGTTVTVSSASTKGPSVFPLAPSSKSTSGGTAALGCLVKDYFPEPVTVSWNSGALTSGVHTFPAVLQSSGLYSLSSVVTVPSSSLGTQTYICNVNHKPSNTKVDKKVEPKSCDKTHTCPPCPAPELLGGPSVFLFPPKPKDTLMISRTPEVTCVVVDVSHEDPEVKFNWYVDGVEVHNAKTKPREEQYASTYRVVSVLTVLHQDWLNGKEYKCKVSNKALPAPIEKTISKAKGQPREPQVYTLPPCRDELTKNQVSLWCLVKGFYPSDIAVEWESNGQPENNYKTTPPVLDSDGSFFLYSKLTVDKSRWQQGNVFSCSVMHEALHNRFTQKSLSLSPGGGSSPPGGGSSGGGSGPAPTSSSTKKTQLQLEHLLLDLQMILNGINNYKNPKLTAMLTAKFAMPKKATELKHLQCLEEALKPLEEVLNLAQSKNFHLRPRDLISNINVIVLELKGSETTFMCEYADETATIVEFLNRWITFAQSIISTLT heavy 2: QVQLVQSGVEVKKPGASVKVSCKASGYTFTNYYMYWVRQAPGQGLEWMGGINPSNGGTNFNEKFKNRVTLTTDSSTTTAYMELKSLQFDDTAVYYCARRDYRFDMGFDYWGQGTTVTVSSASTKGPSVFPLAPSSKSTSGGTAALGCLVKDYFPEPVTVSWNSGALTSGVHTFPAVLQSSGLYSLSSVVTVPSSSLGTQTYICNVNHKPSNTKVDKKVEPKSCDKTHTCPPCPAPELLGGPSVFLFPPKPKDTLMISRTPEVTCVVVDVSHEDPEVKFNWYVDGVEVHNAKTKPREEQYASTYRVVSVLTVLHQDWLNGKEYKCKVSNKALPAPIEKTISKAKGQPREPQVCTLPPSRDELTKNQVSLSCAVKGFYPSDIAVEWESNGQPENNYKTTPPVLDSDGSFFLVSKLTVDKSRWQQGNVFSCSVMHEALHNHYTAPAGLIVPYNGGSSGSGGSGGGSGSGGGEVQLVESGGGLVQPGGSLRLSCAASGSIFSINVMGWYRQAPGKQRELVAAISSGGSTNYADSVKGRFTISRDNAKNTVYLQMNSLKPEDTAVYYCMYASSWYEDETDYWGQGTQVTVSS light: EIVLTQSPATLSLSPGERATLSCRASKGVSTSGYSYLHWYQQKPGQAPRLLIYLASYLESGVPARFSGSGSGTDFTLTISSLEPEDFAVYYCQHSRDLPLTFGGGTKVEIKRTVAAPSVFIFPPSDEQLKSGTASVVCLLNNFYPREAKVQWKVDNALQSGNSQESVTEQDSKDSTYSLSSTLTLSKADYEKHKVYACEVTHQGLSSPVTKSFNRGEC
2 | 1.2 | UCM6 (other) heavy 1: QVQLVQSGVEVKKPGASVKVSCKASGYTFTNYYMYWVRQAPGQGLEWMGGINPSNGGTNFNEKFKNRVTLTTDSSTTTAYMELKSLQFDDTAVYYCARRDYRFDMGFDYWGQGTTVTVSSASTKGPSVFPLAPSSKSTSGGTAALGCLVKDYFPEPVTVSWNSGALTSGVHTFPAVLQSSGLYSLSSVVTVPSSSLGTQTYICNVNHKPSNTKVDKKVEPKSCDKTHTCPPCPAPELLGGPSVFLFPPKPKDTLMISRTPEVTCVVVDVSHEDPEVKFNWYVDGVEVHNAKTKPREEQYASTYRVVSVLTVLHQDWLNGKEYKCKVSNKALPAPIEKTISKAKGQPREPQVYTLPPCRDELTKNQVSLWCLVKGFYPSDIAVEWESNGQPENNYKTTPPVLDSDGSFFLYSKLTVDKSRWQQGNVFSCSVMHEALHNRFTQKSLSLSPGGGSSPPGGGSSGGGSGPAPTSSSTKKTQLQLEHLLLDLQMILNGINNYKNPKLTAMLTAKFAMPKKATELKHLQCLEEALKPLEEVLNLAQSKNFHLRPRDLISNINVIVLELKGSETTFMCEYADETATIVEFLNRWITFAQSIISTLT heavy 2: QVQLVQSGVEVKKPGASVKVSCKASGYTFTNYYMYWVRQAPGQGLEWMGGINPSNGGTNFNEKFKNRVTLTTDSSTTTAYMELKSLQFDDTAVYYCARRDYRFDMGFDYWGQGTTVTVSSASTKGPSVFPLAPSSKSTSGGTAALGCLVKDYFPEPVTVSWNSGALTSGVHTFPAVLQSSGLYSLSSVVTVPSSSLGTQTYICNVNHKPSNTKVDKKVEPKSCDKTHTCPPCPAPELLGGPSVFLFPPKPKDTLMISRTPEVTCVVVDVSHEDPEVKFNWYVDGVEVHNAKTKPREEQYASTYRVVSVLTVLHQDWLNGKEYKCKVSNKALPAPIEKTISKAKGQPREPQVCTLPPSRDELTKNQVSLSCAVKGFYPSDIAVEWESNGQPENNYKTTPPVLDSDGSFFLVSKLTVDKSRWQQGNVFSCSVMHEALHNHYTPANLVAPDPGGGSSGSGGSGGGSGSGGGEVQLVESGGGLVQPGGSLRLSCAASGSIFSINVMGWYRQAPGKQRELVAAISSGGSTNYADSVKGRFTISRDNAKNTVYLQMNSLKPEDTAVYYCMYASSWYEDETDYWGQGTQVTVSS light: EIVLTQSPATLSLSPGERATLSCRASKGVSTSGYSYLHWYQQKPGQAPRLLIYLASYLESGVPARFSGSGSGTDFTLTISSLEPEDFAVYYCQHSRDLPLTFGGGTKVEIKRTVAAPSVFIFPPSDEQLKSGTASVVCLLNNFYPREAKVQWKVDNALQSGNSQESVTEQDSKDSTYSLSSTLTLSKADYEKHKVYACEVTHQGLSSPVTKSFNRGEC
